According to the DeepSol protein solubility set:

assay: soluble on expression in E. coli; label from the status in PepcDB or PDB records

**Q.** Which “soluble on expression in E. coli” value does the source give for “MGSDKIHHHHHHMKKRFIYHDEKSNKFWWIDYEGDSLAVNYGKVGSIGKFQTKEFDNEEQCLKEASKLIAAKMKKGYQEDPKFNFMDRYYFDDEEIGLHVKTSHPNFQCHFTDPLYMCCWDEESPFGSDEGADALNVLENSLRKEPDLDCADFPQMLIETMWGMKYIAMDSILEEDVRAQLLVDEMSTIQSNMITYATAFGQIKVMGKISHKLKKMGLNALARHQLTAKILQWGDGQDSPILQKMIDDLTAFPHEN” here?
**A.** not soluble

**Q.** With “MGSDKIHHHHHHMKKYQRLAEQIREQIASGVWQPGDRLPSLREQVASSGMSFMTVGHAYQLLESQGRIIARPQSGYYVAPHPVCRSVATAAHVIRDEAVDINTYIFEMLQASRDTSVVPFASAFPDPRLFPLPQLNRSLAQVSKTATAMSVIENLPPGNAELRYAIARRYAQQGITVSPDEIVITAGALEALNLSLQAVTAPGDWVVVENPCFYGALQALERLRLKALSIPTDVKEGIDLMALEQALQEYPVKACWLMTNSQNPLGFTLSAEKKARLVALLTHHNVTLIEDDVYSELYFGREKPLPAKAWDRDDTVLHCSSFSKCLVPGFRIGWVAGGSHARQIQRLQLMSTLSTSSPMQLALVDYLSTRRYDAHLRRLRRQLAERKQQAWQTLLRHLPAEVKIHHNDSGYFLWLELPEQLDAGELSAKALEHLISIAPGKMFSTSGAWTRFFRFNTAWHWGEREEQAVKQLGSLIREMLSAKSLV” as the sequence, how does the “soluble on expression in E. coli” value read?
**A.** not soluble

**Q.** For “MGSDKIHHHHHHMKLKTKTMEWSGNSLKLLDQRKLPFIEEYVECKTHEEVAHAIKEMIVRGAPAIGVAAAFGYVLGLRDYKTGSLTDWMKQVKETLARTRPTAVNLFWALNRMEKVFFENADRENLFEILENEALKMAYEDIEVNKAIGKNGAQLIKDGSTILTHCNAGALATVDYGTALGVIRAAVESGKRIRVFADETRPYLQGARLTAWELMKDGIEVYVITDNMAGWLMKRGLIDAVVVGADRIALNGDTANKIGTYSLAVLAKRNNIPFYVAAPVSTIDPTIRSGEEIPIEERRPEEVTHCGGNRIAPEGVKVLNPAFDVTENTLITAIITEKGVIRPPFEENIKKILEV”, which “soluble on expression in E. coli” value is on record?
**A.** not soluble

**Q.** For “MGSDKIHHHHHHMKLPANQEKNQPVPVVKPSSTLEEINQNAAGIDLGSGEHWVCVPPDRADKNVRRFGCFTPDLIAMADWLKECRINTVAMEATGVYWIPVFQVLEAKGFEVKLVNAHHVKTVPGRKTDVLDCQWLQKLHTYGLLSGSFRPEDQVCVLRSYIRQRDTLIKSASAHIQRMQKALIQMNLHLHKVISDVTGLTGMKIIKAIVAGEQDPQVLASLKDPHIKSSTADIAASLTGDYRREHLFVLQQELTLYEIYQQQIIAVDAEIEKCLAYA”, which “soluble on expression in E. coli” value is on record?
**A.** not soluble

**Q.** Which “soluble on expression in E. coli” value does the source give for “MGSDKIHHHHHHMKLRRNMKWNDEGKRIVEMLKLRTPPVGVKFFQEKYEPERAFRPSKYGIKMAVCQAIAFARYIGRTVVLEAEDFGCPPAMLLYGVAEYEGSLKDILVGAQWLKDESCEVAEQKLPLGKYKSFVFGDMTKMAEEPEAVMIFGTPAQIGRLIQAATYFGGAVKANLTAKTASCAEALFPALRGEVAIAVPGAGDRVFAAIQETEMIFAMPYAWTGKILEGLENAGRGANISYPPSPFLMFTPRFPKHYRETAEKFKLV” here?
**A.** not soluble

**Q.** Which “soluble on expression in E. coli” value does the source give for “MGSDKIHHHHHHMKMVTKLSIVLGLIATLVLSGCQKHDTHEEMPHYAATTPFREDTSILEPYVCQIRAIRHIEVRSLEKGYLTHIFIDEGQWVKKGQPMFKIMPNVYQAELLTAEAEAQNVNIEYLNTKALADKNIVSANELALAKAKLDKANAQVNLAKTHLGFTDIRAPFDGITDHLAVRIGSLLDEDDLLTELSDIAHLWVYFNVPEAKYLDFIRREKGKTNEKVQLRMANGEIYEHTGVIETIVGDFYNTSGNIQFRALFENPDRVLRHGQTGTILMTVPYPNAMLIPQKATFEIMDKIYLYVVNKEEKVEQRLIQIEAELPHMFIVKSGVNDGERILIEGMRKVSPGDKVMIDLKPPQEVRSELMKLYTE” here?
**A.** not soluble

**Q.** With “MGSDKIHHHHHHMKNGKISESVLKRSVLKQLHTKSDRILFKPAVGEDCAVISMQAGGKTKLVTATQTFTLDVSDKHVRANCAVYDALNNIYAMGADPVGIELALLVPTTENEAVLRETVRAIDAVCEKAGIVVLGGHTQVSRAVKNIVVTVTAIGEAYEQALTPSSAAAPGMDVIVTGYVGLEGTAILANEKRTELETRFSKAFIDKSAAYIDHISTAMEAASAIGAGVAAIHDASQGGIFGALWDMAEASGIGLDIDLKKLPIRQDTIEISEFFDINPYKLLSGGSLIIIAADGTRVVRELEKTGQNAVIVGATTDSNDRVLISGEERRFLETAQTDEIYKVFN” as the sequence, how does the “soluble on expression in E. coli” value read?
**A.** not soluble

**Q.** For “MGSDKIHHHHHHMKNIHSIEFYTGSKEELLPDFEKDFPYIASRAELDKYIGGYVPWHWHRTVELFYMESGSIEYDTPGGKILFPAGSGGMINPNVLHMTKAISQREKNIQLLHIFDVSLLAGEQGSRIEQKYIAPVITAPQIEVIPLFPGNAEEERILKLLAASFRLSSDEFGYEIKLREALTEIWLMLFELSCSMREKKGEHNKSNDKIKLMMIYIHEHYREKISILELAAAAYLSERECYRVFHDCLHMTPVEYITTYRLQIACQMLAKGQEPITVISHECGLGSSSYFGKVFREYAYCSPTEYRKKWQNSDM”, which “soluble on expression in E. coli” value is on record?
**A.** not soluble

**Q.** Which “soluble on expression in E. coli” value does the source give for “MGSDKIHHHHHHMKNIIGILGVFILAISCSGGKKESADAGLELTEDSVVYLLADNVTLGIKALFPFIDKDGHEYLTFQNQLEPEICVYDLQSGEFVKSIFFDREGANGVGMFGGYHIIDFDEIYLPSLQQSKVFVMEESGKKKREIITEKTDDGIPLLPFGAITFAYRPIYFNNGKMYIPQTVNMRLGNKVMEKSPVYVVVDTVKNVLSPFSIKFPPIMSSDDVTKPSLGNELSYSCCLNDKDQFVFSFFFDEDIYVVSLQDGEMKKIKVKSRYIDKPAIKENPPQDFDGAMKASSEIPCYGNLIYDKYRKVYYRFVYLKADLDGEKNYLNIWQYGRKSFSIMILNEDFDVIGETRFPDFTYISTLHYIGKDGLYLSDSHYKNPSFDENKLRFRRFKLVHYNKK” here?
**A.** not soluble

**Q.** For “MGSDKIHHHHHHMKNLLITVFFLSLTLQLSAETGGSNAVIVEKTTASPAEKTPVYWQKMADGMSQALIKHFWGANFKGYENRFYFNYGSDLSNMTTNHYWPQAHAMDVMVDAYMRTGSKQYLNIYPLWWEGAPKFNFAGREEDPWWNVFVDDMEWIALAQIRMFESTKNTKYLKKARQTYDDWVWSTWGPEDEAPWFGGITWKTDVAKSKNACSNGPAALIAARLYNFYDAMGKKAGKPKQAYLNEAIKIYTWEKNNLFDRQTGAVYDSMNGEGKITKWVFSYNSGTFLGAAHELYKITGDKQYLADAVKAANFVIDHLSTNEGVLSDAEGGDGGLFHGIFFRYFVKLINDPALDSANYNKFRDYITHCATVMAEQGVNQKTMLYSGRWRKAPADDESVGLTSHLTGCMLMEAMCVLKHR”, which “soluble on expression in E. coli” value is on record?
**A.** not soluble

**Q.** Which “soluble on expression in E. coli” value does the source give for “MGSDKIHHHHHHMKNLYAKVIVGGSPISKSNFKLSNINGRAILPYNSGQYHDRYAIYEETIAYEARSQNPNTVISESIIAVLKVFYKSKKRHPDTNNITKSIFDGIEKSGIIVNDAQITRIIIEEYYDMINPRFELELFAESKFKMKYSILKKEEEDEPILYDPPSNKKRLITKTQKPKKSAQNGTITCSICGKKVTNDNIIWANKGTTALCKNCLKKSF” here?
**A.** not soluble

**Q.** Which “soluble on expression in E. coli” value does the source give for “MGSDKIHHHHHHMKPENLVKAVKILDNHIPKELDDPNSIAQAAEKLELKNFSQSELVNGFNLFFAQRFEDRLQIFNRITPPVIGDLMALVTEKLGLAKQEIFDPEIVFPDLIFQFASHFGQSIYGRAADQIIDASLKKLANIYRFDFTDSDHEKIVVSRILGIDFAAEMNHFFKASNLKVGESAILLVNNSDLQSNSFAEILKKNKNMALLAIIELPTKLFKHSEMRSSLLILRRKVDNEKVTAQVLLAQIPELSNKEDFSKFVSQLETWKKENL” here?
**A.** not soluble

**Q.** With “MGSDKIHHHHHHMKPGSHLFSPISFQESTPLYRQLYERVRRAISVGLLFPGDRLPSARMLAKELGVARGTIEQAYSLLIAEGYLQAHGQAGTRVNPDLPSASLPVAEAPVSPSAPDAEQQILWRPSQLLPFQMGVPAFDAFPRKLWARLGARYLRSMQLPDLDYPAPYGLPALRNAIASYLQVSRGIDCTANQVFITSGWRANLQLATLALLKSGQRVWVEDPGYPPTRQLLSQSGLCPIAVSVDREGINVERGIAQANDASMAVVTPAHQSPLSMSLSLPRRQALLQWATAQNAWIMEDDYDGEYRYISRPLPALASLDRHGRVLYAGTFSKVLFPGIRLAYLVVPQSQVAAFEHINRIFFASASPTMTQSIVASFITEGHFARHIQRTRRLYAERRTATITVLQGILGNRIRIDSQPGGMHLVLRLPDKFSDRQLADRLLAQGIAVQPLSRWAVSGSGDNALLVSFTNCTTVMESERLAALILAECEQHGNSLA” as the sequence, how does the “soluble on expression in E. coli” value read?
**A.** not soluble

**Q.** For “MGSDKIHHHHHHMKPPIQLPLGVRLRDDATFINYYPGANAAALGYVERLCEADAGWTESLIYLWGKQGVGRSHLLQAATHRFQQRGEPAVYLPLAQLLDRGVELLDYLAQYELVCIDDLHVIAGKADWEEAMFHLFNRLRDSGRRLLLAASASPRELPIKLPDLKSRLTLALVFQMRGLSDEDKLRALQLRASRRGLHLTDEVGHFILTRGARSMSALFDLLERLDQASLQAQRKLTIPFLKETLGW”, which “soluble on expression in E. coli” value is on record?
**A.** not soluble

**Q.** Which “soluble on expression in E. coli” value does the source give for “MGSDKIHHHHHHMKRINRFAVQIDVEGRTELAHLHDPGRLLEIVYPGNEVLVRRTDGPKLKWRIEFGKINGRYVLIDSGLHSDIARRFLPEGAVPEVRVGRKRIDFRYGDDYIEVKGCTLMANGIAMFPDAPTKRGLEHLKTLETLASSGYRSHVMMIITRDDVRCFYPNFETDPKFAEAFLRLVPAYVKAHFLTFGFDGLYLRYAGSIGLCADVGHGTNGRL” here?
**A.** not soluble

**Q.** With “MGSDKIHHHHHHMKSVSVRSCKTYNYEEVKLSIEKNLEDIGGIDKFVKKGSKVLIKPNLLMKKKPEEATTTHPMVVKVVCEKLLELNCDITIADSPGGPYNQSSLKSIYKASGIEEVANELGIKLNYDVSDVKIHSEKAHVLKYMDIIKPIVDSDYIINLCKLKTHIMATFTGGTKNLYGCIAGLKKAEIHYRFPTEELFCENVLLDICDYIKPTLTIMDGIVGMEGDGPSAGTTREIGVLLASQNPYAIDVVACKIISLLPNRVATIRGAIKRGYIQEDFSDIEILGEDIKDLIIKNYKIPNVSKDLRLFSVKLPKFLNEPISKLITPKPVVRFQDCIKCGKCKEACPASTIEIGTKGAIIDLSKCIRCYCCHELCPKKAIDVKRNFVFKYVK” as the sequence, how does the “soluble on expression in E. coli” value read?
**A.** not soluble

**Q.** For “MGSDKIHHHHHHMKTAALFVSKEFEEEAIALVEGANYKVTSIYKLPKSPNVKFYIQYDKLQQIKNDEEISTLIIFEQLKPRHFINIRRELKGKEVLDKILLLLEIFALHAGSKEAKMQIELARLKYELPIIKETYTKSKIGEQQGPLGAGTYGVESTIKFYKRRINKLMKELESIKIFKEKSIESNKRNNIPSIGIVGYTNSGKTSLFNSLTGLTQKVDTKLFTTMSPKRYAIPINNRKIMLVDTVGFIRGIPPQIVDAFFVTLSEAKYSDALILVIDSTFSENLLIETLQSSFEILREIGVSGKPILVTLNKIDKINGDLYKKLDLVEKLSKELYSPIFDVIPISALKRTNLELLRDKIYQLATQLS”, which “soluble on expression in E. coli” value is on record?
**A.** not soluble

**Q.** For “MGSDKIHHHHHHMKTELVQVETEDSIVLHGAFYEAEQGKPAIIIMHGAAMNFYTGLGRFLPEILSEHGFSCLSANNRGHDFGTAPDHDRKPVIGLMRDIFKDCVKDVQALLHFLRSRGYPRVILLGHSQAIPKLLYAQNQLQFPEVQGMILVSPPPSVSKMMRYLTTDNYYERGLFKANELGEMGMYDQLIVLRGRGTMPWIFTVSTFLDFYGPNTPADTEELVKEIYCPMLLIRGSMDFPPVSMELMHNMKQNAAVPESVTIREINEASHFYSGQEKQLGNTILEWLDSY”, which “soluble on expression in E. coli” value is on record?
**A.** not soluble
